Assay results: article PMC4107485

What was measured:
Assay in all cases: EMSA
[1] = molecular target: T1, CpxR (Erwinia amylovora Ea1189) (UniProt A0ABX7MGR0)
T1 sequence: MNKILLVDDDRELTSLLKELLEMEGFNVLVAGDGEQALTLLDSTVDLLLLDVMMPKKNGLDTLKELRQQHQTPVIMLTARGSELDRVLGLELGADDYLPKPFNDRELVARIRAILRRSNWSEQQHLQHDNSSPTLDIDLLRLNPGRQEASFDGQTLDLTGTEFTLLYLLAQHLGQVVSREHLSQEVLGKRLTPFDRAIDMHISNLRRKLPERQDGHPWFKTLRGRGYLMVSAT

[2] = system: T2, BaeR (Erwinia amylovora Ea1189), ORF:3df56c72
T2 sequence: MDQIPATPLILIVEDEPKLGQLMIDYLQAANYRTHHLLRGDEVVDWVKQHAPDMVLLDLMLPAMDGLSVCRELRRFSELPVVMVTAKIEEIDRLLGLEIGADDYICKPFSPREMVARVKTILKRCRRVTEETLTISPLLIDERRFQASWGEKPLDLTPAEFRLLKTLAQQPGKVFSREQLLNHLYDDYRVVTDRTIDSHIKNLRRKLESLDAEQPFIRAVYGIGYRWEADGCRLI

[3] = system: BaeR, acetyl phosphate treated (Erwinia amylovora Ea1189)

Row | Substance | binding [1] | binding [2] | binding signal (fold binding vs unphosphorylated BaeR) [3]
1 | TCTACGGTCACGGTTAAGAAACCGCGTCGTCTTTTGCGCCGTCAGCTGCAGATCACCACGCGTATGCGTGGTTTTTTTGGCGCTATTTCATGGCGATAACATATATTAAATCTCGCATTTCTTACGGAATTCTTACGCTGCCAGCATGGAACGCCAGCAGATAAGCTAAGATAATATGCTTAACTACCCACCACCTTTGGACGGGTAAGGGGCTAAAGCCATGCCCTTTACGCCGGGTTTTTGCGCGCCGGGGATTATCCTGTCGGGTGTTGTTTA (double strand) [mdtUVW upstream region] | no binding | no binding | 
2 | TGATTCTCCTGATTGATAAGTGGATAACGCAGCTGATAAGACTGGCAAACAGCGTTGCATGCGCTGCGTTGATTTGTAGCATACCATTTGCCAATACTAAATTTTCTCACCGTAGCAGCTCTTATTTAAGCCGTTATCCTTATTTCCTTCATTTTTCAGCGCCTGAAATTCGCTATCCTTGCCAGCCTGGGGGCAAGCCCTAATCCCGCCCCGCGCCCTGCTTTAATTTCACGGAGAGTAGCACCCAGGATGAAAACACCCCGACGTTTCCCCCTTATCGCCTTGACGGT (double strand) [mdtABC upstream region] | no binding | binds | 
3 | mdtABC upstream region |  |  | 2
